Assay results from article PMC4652773, “Functional significance of protein assemblies predicted by the crystal structure of the restriction endonuclease BsaWI”.

How the values were obtained:
Experiment in all cases: EMSA; 5 mM Ca2+; EMSA: 40 mM Tris-acetate pH 8.3, 0.1 mg/ml BSA, 10% glycerol, 5 mM CaCl2 or 0.1 mM EDTA, 1 nM DNA, room temperature, 15 min
BsaWI R130A = target: T1, BsaWI R130A (UniProt Q6UQ65 1-272, R130A); conditions: protein: recombinant; chain copies: 2; label: 33P; blunt
T1 sequence: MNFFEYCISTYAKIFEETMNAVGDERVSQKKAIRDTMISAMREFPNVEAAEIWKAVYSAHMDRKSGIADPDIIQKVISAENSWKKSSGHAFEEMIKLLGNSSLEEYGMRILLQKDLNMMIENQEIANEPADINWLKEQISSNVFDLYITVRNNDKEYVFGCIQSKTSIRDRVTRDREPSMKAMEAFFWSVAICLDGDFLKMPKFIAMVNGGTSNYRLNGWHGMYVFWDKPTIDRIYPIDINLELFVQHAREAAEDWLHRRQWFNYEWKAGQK

BsaWI R130A&R259A = target: T2, BsaWI R130A&R259A (UniProt Q6UQ65 1-272, R130A;R259A); conditions: protein: recombinant; chain copies: 2; label: 33P; blunt
T2 sequence: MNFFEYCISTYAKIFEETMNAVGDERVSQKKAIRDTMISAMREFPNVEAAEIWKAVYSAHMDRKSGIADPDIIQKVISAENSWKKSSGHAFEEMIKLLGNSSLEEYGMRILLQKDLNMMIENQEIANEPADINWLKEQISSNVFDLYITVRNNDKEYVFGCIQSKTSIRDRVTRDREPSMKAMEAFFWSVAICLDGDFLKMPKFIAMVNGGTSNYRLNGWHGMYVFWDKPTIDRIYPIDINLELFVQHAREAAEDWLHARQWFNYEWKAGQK

BsaWI E128A = target: T3, BsaWI E128A (UniProt Q6UQ65 1-272, E128A); conditions: protein: recombinant; chain copies: 2; label: 33P; blunt
T3 sequence: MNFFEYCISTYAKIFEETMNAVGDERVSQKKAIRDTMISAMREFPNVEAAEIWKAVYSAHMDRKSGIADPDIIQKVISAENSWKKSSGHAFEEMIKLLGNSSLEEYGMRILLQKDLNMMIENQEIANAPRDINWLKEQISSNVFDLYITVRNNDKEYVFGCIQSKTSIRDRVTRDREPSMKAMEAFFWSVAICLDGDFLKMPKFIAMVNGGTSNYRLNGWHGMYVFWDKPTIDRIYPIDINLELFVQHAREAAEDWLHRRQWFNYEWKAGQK

BsaWI E128A&R130A = target: T4, BsaWI E128A&R130A (UniProt Q6UQ65 1-272, E128A;R130A); conditions: protein: recombinant; chain copies: 2; label: 33P; blunt
T4 sequence: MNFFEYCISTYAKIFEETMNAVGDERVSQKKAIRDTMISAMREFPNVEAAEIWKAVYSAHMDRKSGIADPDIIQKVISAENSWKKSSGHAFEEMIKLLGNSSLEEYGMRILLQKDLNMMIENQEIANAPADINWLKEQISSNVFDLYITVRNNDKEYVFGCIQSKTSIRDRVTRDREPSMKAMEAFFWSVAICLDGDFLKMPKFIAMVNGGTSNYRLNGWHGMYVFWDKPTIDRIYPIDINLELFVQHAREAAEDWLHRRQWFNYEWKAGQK

BsaWI R259A&W262A = target: T5, BsaWI R259A&W262A (UniProt Q6UQ65 1-272, R259A;W262A); conditions: protein: recombinant; chain copies: 2; label: 33P; blunt
T5 sequence: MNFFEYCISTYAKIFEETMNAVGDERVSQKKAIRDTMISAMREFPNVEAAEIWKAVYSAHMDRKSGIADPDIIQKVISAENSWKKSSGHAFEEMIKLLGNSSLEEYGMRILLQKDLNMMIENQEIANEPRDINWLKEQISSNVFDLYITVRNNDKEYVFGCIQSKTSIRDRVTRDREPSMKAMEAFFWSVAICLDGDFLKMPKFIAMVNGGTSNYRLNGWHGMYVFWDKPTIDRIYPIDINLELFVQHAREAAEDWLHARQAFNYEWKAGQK

BsaWI D145A = target: T6, BsaWI D145A (UniProt Q6UQ65 1-272, D145A); conditions: protein: recombinant; chain copies: 4; label: 33P; blunt
T6 sequence: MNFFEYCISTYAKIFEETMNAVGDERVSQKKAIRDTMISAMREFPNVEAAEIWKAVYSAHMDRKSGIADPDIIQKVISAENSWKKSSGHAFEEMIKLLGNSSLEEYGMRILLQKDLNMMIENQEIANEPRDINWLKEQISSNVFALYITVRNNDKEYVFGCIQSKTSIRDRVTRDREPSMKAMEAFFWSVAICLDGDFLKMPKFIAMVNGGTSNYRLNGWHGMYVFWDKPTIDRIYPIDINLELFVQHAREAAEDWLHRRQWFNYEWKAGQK

BsaWI D175A = target: T7, BsaWI D175A (UniProt Q6UQ65 1-272, D175A); conditions: protein: recombinant; chain copies: 4; label: 33P; blunt
T7 sequence: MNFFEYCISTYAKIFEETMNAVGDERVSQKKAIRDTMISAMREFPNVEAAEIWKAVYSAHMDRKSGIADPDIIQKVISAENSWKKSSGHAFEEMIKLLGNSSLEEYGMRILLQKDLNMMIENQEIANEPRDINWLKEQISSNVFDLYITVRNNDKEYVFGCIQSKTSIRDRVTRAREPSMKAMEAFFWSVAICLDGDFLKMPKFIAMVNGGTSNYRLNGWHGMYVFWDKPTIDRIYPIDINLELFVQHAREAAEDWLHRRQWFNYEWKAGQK

B1: SP (dsDNA)
DNA 1: GCCTTTCGGTTTACCGGTGTCATTCCGCTG
DNA 2: CAGCGGAATGACACCGGTAAACCGAAAGGC
Kd (BsaWI R130A): 3.9 ± 0.6 nM | Kd (BsaWI R130A&R259A): 2.7 ± 0.5 nM | Kd (BsaWI E128A): 2.19 ± 0.4 nM | Kd (BsaWI E128A&R130A): 2.1 ± 0.5 nM | Kd (BsaWI R259A&W262A): 2.6 ± 0.6 nM | Kd (BsaWI D145A): 17 ± 4.7 nM | Kd (BsaWI D175A): 6.1 ± 2.3 nM
